According to PMC4693281:

B1: bovine ZP3 fragment Arg-32 to Glu-178, N-terminal His-tag and S-tag [modified: N-glycosylated Asn-124 and Asn-146; N-glycosylated Asn-124 and Asn-146] [bovine] / bovine ZP4 (Lys-25 to Arg-464) with N-terminal FLAG-tag … (parent)
chain 1: RFRPSKPPAVMVECQEAQLVVTVDKDLFGTGKLIRPADLTLGPDNCEPLASADTDGVVRFAVGLHECGNILQVTDNALVYSTFLLHNPRPAGNLSILRTNRAEVPIECHYPRQGNVSSWAIQPTWVPFRTTVFSEEKLVFSLRLMEE
chain 2: KVPEYPDELRCGLRSFQFTINPLSQETETPPVLVAWDNHGLPHSLQNDSDCGTWVSEGPGSSLVGEASYSGCYVTEWESYYIMTVGIERAGVSGSGAFIETKLFKCPVNLPDVPNAGLCDSVPVWDRLPCAPSPITQGDCKQLGCCYNSEEVISCYYGNTVTSHCTQDGHFSIAVSRNVTSPPLLLNSVHLAFRNDSECKPVMATHTFVLFRFPFTTCGTTKQITGKQAVYENELVAARDVRTWSRGSITRDSTFRLQVSCSYSASSSALPVNVQVLTLPPPLPETQPGNLTLELKIAKDKRYRSYYTASDYPVVKLLRDPIYVEVSIHQRTDPSLELRLDQCWATPGADALLQPQWPLLVNGCPYTGDNYQTKLIPVWEASDLPFPSHYQRFSISTFSFVDSVAKRALKGPVYLHCSASVCQPAGTPSCVTLCPARRRR

Variants of: B1
Assay: co-precipitation (TALON resin pull-down of His-tagged ZP3 fragment, anti-FLAG Western blot quantified with NIH ImageJ)
Conditions: with bovine ZP4 (Lys-25 to Arg-464) with N-terminal FLAG-tag and S-tag [bovine]; parent: 100; read off a plot

| percent of parent [%] | Variant |
| --- | --- |
| 110 | chain 1 RFRPSKPPAVMVECQEAQLVVTVDKDLFGTGKLIRPADLTLGPDNCEPLASADTDGVVRFAVGLHECGNILQVTDNALVYSTFLLHNPRPAGDLSILRTNRAEVPIECHYPRQGDVSSWAIQPTWVPFRTTVFSEEKLVFSLRLMEE |
| 130 | chain 1 RFRPSKPPAVMVECQEAQLVVTVDKDLFGTGKLIRPADLTLGPDNCEPLASADTDGVVRFAVGLHECGNILQVTDNALVYSTFLLHNPRPAGNLSILRTNRAEVPIECHYPRQGDVSSWAIQPTWVPFRTTVFSEEKLVFSLRLMEE |
| 100 | chain 1 RFRPSKPPAVMVECQEAQLVVTVDKDLFGTGKLIRPADLTLGPDNCEPLASADTDGVVRFAVGLHECGNILQVTDNALVYSTFLLHNPRPAGDLSILRTNRAEVPIECHYPRQGNVSSWAIQPTWVPFRTTVFSEEKLVFSLRLMEE |
